Results reported in paper PMC10836093, “Ensemble-based design of tau to inhibit aggregation while preserving biological activity” (Research Square, 2024).

Biological target: the molecule itself
Assay: ThT fluorescence aggregation assay; peptide alone, 50-800 μM in 1X PBS pH 7.4, 1 mM DTT, 25 μM ThT, 37 °C, no inducer; self-assembly into amyloid fibrils, t1/2max from fitted curves

| Protein | t1/2max of ThT aggregation at 800 μM [h] | t1/2max of ThT aggregation at 100 μM [h] |
| --- | --- | --- |
| Ac-KDNIKHVPGGGSVQIVYK-NH2 (also called 4R-derived peptide; source: synthetic peptide (Genscript, >95% purity), disaggregated in TFA) [WT R2R3_(294-311) peptide] | 46 ± 13 |  |
| Ac-KDNIKHVSGGGSVQIVYK-NH2 (also called mutant 4R fragment; source: synthetic peptide (Genscript, >95% purity), disaggregated in TFA) [P301S R2R3_(294-311) peptide] | 7.5 ± 1 | 52 ± 14 |
